Data from patent CN107043422A (CHENGDU KANGHONG BIOLOGICAL TECH CO LTD, dated 2017).
Changes are numbered by the printed parent chain.

Experiments:
猪CFD [1] = biological target: T1, 猪CFD (猪 (pig), UniProt P51779 27-259, limits assumed); assay: BLI (Octet QK), antibody on Protein A biosensor, CFD transfection supernatant in solution
T1 construct: Transiently expressed in DG44 cells; The culture supernatant was used unpurified in the Octet assay; also called pig CFD; 猪(GeneID:396877)

人CFD蛋白 = biological target: T2, 人CFD蛋白 (人 (human), UniProt P00746 26-253, limits assumed); assay: BLI (Octet QK), human CFD on Ni-NTA biosensor, KH-A at 125 nM in rabbit vitreous fluid
T2 construct: also called human complement factor D
T2 sequence (P00746 26-253 limits assumed): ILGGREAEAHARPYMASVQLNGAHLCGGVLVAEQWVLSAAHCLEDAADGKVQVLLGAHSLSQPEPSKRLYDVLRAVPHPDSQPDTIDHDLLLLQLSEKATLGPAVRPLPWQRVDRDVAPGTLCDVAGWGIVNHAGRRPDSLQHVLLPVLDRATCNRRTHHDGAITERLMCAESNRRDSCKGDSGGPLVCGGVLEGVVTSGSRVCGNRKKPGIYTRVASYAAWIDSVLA

[2] = biological target: T3, 大鼠血清中的补体因子D (rat serum complement factor D) (大鼠 (rat), UniProt P32038 26-263); assay: cell-based or functional assay
T3 sequence (looked up): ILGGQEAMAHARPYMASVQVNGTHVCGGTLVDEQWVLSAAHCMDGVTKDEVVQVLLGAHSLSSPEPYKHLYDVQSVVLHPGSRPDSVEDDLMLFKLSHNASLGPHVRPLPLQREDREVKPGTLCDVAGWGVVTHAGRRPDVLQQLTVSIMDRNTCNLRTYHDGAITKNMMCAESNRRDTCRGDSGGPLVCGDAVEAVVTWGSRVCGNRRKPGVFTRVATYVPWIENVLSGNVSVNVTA

猪CFD [3] = biological target: T1, 猪CFD; assay: BLI (Octet QK), His-tagged CFD supernatant on Ni-NTA biosensor, Fab at 10 μg/ml

T1 sequence (P51779 other isoform, or with tags, fused parts or gaps limits assumed): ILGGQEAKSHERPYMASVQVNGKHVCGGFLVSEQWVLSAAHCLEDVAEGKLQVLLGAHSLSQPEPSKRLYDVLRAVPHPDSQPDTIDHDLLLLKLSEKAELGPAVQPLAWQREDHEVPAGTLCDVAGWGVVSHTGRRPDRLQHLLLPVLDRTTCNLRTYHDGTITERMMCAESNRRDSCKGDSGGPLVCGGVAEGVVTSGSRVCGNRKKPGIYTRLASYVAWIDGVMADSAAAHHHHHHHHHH

B1: KH-A (antibody, human IgG4 S228P, kappa, V domains shown)
VH: QVQLVQSGPELKKPGASVKVSCKASGYTFTNYGMNWVRQAPGQGLEWMGWINTYTGETTYADDFKGRFVFSLDTSVSTAYLQISSLKAEDTAVYYCEREGGVNYWGQGTLVTVSS
VL: DIQVTQSPSSLSASVGDRVTITCITSTDIDDDMNWYQQKPGKVPKLLISGGATLRPGVPSRFSGSGSGTDFTLTISSLQPEDVATYYCLQSDSLPYTFGQGTKLEIKR
notes: Full-length humanized anti-complement factor D antibody expressed in CHO-S cells; also called 抗体KH-A; 全长抗体KH-A
**Q.** Which results are given for B1?
**A.** binding result (猪CFD [1]): binds; binding result (人CFD蛋白): binds; IC50, 全长抗体抑制大鼠血清致兔红细胞溶血 (ACH50法, 补体旁路途径活性) [2]: 3860 µg/mL

B2: KH021 (Fab, V domains shown)
VH: B1 VH with Y104S
VL: B1 VL with M33V, A52N, L89M
notes: Fab expressed in the E. coli periplasm; also called Fab抗体KH021
**Q.** Does B2 bind (猪CFD [3])?
**A.** Result: binds

B3: KH-F (antibody, human IgG4 S228P, kappa, V domains shown)
VH: B1 VH with Y104S
VL: B1 VL with M33V, A52N, L89M
notes: also called 全长抗体KH-F
**Q.** Does B3 bind (猪CFD [1])?
**A.** Result: binds

**Q.** What about the “IC50, 全长抗体抑制大鼠血清致兔红细胞溶血 (ACH50法, 补体旁路途径活性)” value [2] of the same binder?
**A.** The value was 3960 µg/mL.

B4: KH027 (Fab, V domains shown)
VH: B1 VH
VL: B1 VL
notes: Fab expressed in the E. coli periplasm; also called Fab抗体KH027
**Q.** Does B4 bind (猪CFD [3])?
**A.** Result: binds
